Changes are numbered by the printed parent chain. Each block holds one binder with its values, some of them ahead of it.
Experiments:
[1] = target: T1, recombinant human tumor necrosis factor-α (human, UniProt P01375 77-233); experiment: cell-based or functional assay
[2] = target: T1, recombinant human tumor necrosis …; experiment: competition ELISA, rhTNF coated on plate, competitor HRP-labeled humira; given in µg/mL
Procedure: The anti-hTNFα human antibody humira marked with horseradish peroxidase (HRP) was used as a reagent. Elisa plates were coated with rhTNF (50 μl of […]), and left overnight at room temperature. The coating solution was discarded, and each well was blocked with 1% skim milk in phosphate buffered saline (PBS) for about 0.5 hours, and washed with PBS containing 0.05% Tween 20. And then a mixture of 50 μl of growth medium and 50 μl of HRP labeled humira was added to each well. Unlabeled humira and antibody-free medium were used as positive and negative controls. […] The wells in which the binding of HRP-labeled humira and rhTNFα was inhibited Kong were amplified and subcloned, followed by analysis of several mouse monoclonal antibodies which show the inhibition effects, and finally hybridoma cells were screened out. The hybridoma cells were intermediate cultured, and the supernatant was taken for purification, and the mouse monoclonal antibody TM2-11-12 and TM2-6-3. The purified mouse monoclonal antibodies TM2-11-12 and TM2-6-3 were tested in competition binding assays. Even at the concentration up to 1 μg/mL, the mouse antibody TM2-6-3 only competed out about 50% of the binding of humira to hTNFα.

[3] = target: T2, mouse TNFα (mouse, UniProt P06804 80-235); experiment: ELISA, TNFα coated on plate (mouse 25 ng/well, human 5 ng/well), HRP-labeled anti-human Fc detection; calculated from coating and sample concentrations
T2 sequence (looked up): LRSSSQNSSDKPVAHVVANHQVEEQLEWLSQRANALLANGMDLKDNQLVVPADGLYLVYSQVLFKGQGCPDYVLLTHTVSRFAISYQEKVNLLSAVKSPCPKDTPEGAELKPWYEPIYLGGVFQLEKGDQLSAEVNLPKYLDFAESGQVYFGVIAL
Procedure: (§1) On a plate, respectively coat recombinant human TNFα 5 ng/well, mouse TNFα 25 ng/well, and monkey TNFα 5 ng/well at room temperature, and blocked for 1 h, washed. And then 1.8-fold gradient dilutions of AT132 was added with an initial concentration of 250 ng/mL, and incubated at 25° C. for 2 h, washed, HRP-labeled anti-human Fc antibody added, and incubated at room temperature for 1 h, washed, and the substrate solution added as 100 μl/well, placed in dark at 37° C. for 30 min. In accordance with the order of the added color reagents, 0.2 M H₂SO₄, 50 μl/well was added to terminate the reaction. Within about 5 minutes after termination, OD values were test at 450 nm/630 nm on a microplate reader, and median effective concentrations were obtained by four-parameter fitting. Compare the binding activities of AT132 to different sources of TNFα.

[4] = target: T2, mouse TNFα; experiment: ELISA, TNFα coated on plate, HRP-labeled anti-human Fc detection
Procedure: as §1

[5] = target: T1, recombinant human tumor necrosis …; experiment: SPR, Biacore X100; antibody captured by goat anti-human IgG Fc on CM5 chip, TNFα as analyte
Procedure: AT132 affinity was determined by Biacore X100, and analyzed with Biacore X100 kinetics/affinity analysis software. Using indirect capture method, goat anti-human IgG Fc polyclonal antibody was coupled to the surface of CM5 chip as a capture molecule by using Amine Coupling Kit. By calculation, AT132 and Humira as control were respectively diluted to a a certain concentration to be lately used as ligand, and TNFα as the analyte. Analytes were diluted to 5 concentrations, and each concentration as a cycle. First, using HBS-EP buffer to run for three cycles, designing an analyte concentration of 0 concentration to run for two cycles, and finally, designing a repeat analyte concentration to run for a cycle. The whole process ran 11 cycles, and each cycle can draw a curve. The dynamics/affinity data of the measured antibody and humira were analyzed by Biacore X100 kinetics/affinity analysis software.

[6] = target: monkey TNFα (monkey); experiment: ELISA, TNFα coated on plate (5 ng/well), HRP-labeled anti-human Fc detection, four-parameter fit
Procedure: as §1

T1 sequence (P01375 77-233 limits assumed): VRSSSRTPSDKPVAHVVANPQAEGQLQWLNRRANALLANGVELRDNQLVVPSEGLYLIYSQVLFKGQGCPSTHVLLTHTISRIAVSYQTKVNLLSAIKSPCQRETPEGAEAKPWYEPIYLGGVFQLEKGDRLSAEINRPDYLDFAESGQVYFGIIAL

B1: AT135 humanized anti-TNFα antibody (antibody, human IgG1, V domains shown)
VH: QVQLVQSGPELKKPGASVKISCKASGYTFTHYGMHWVKQTPGRGLKWVGWINTYTGEPTYDADFQGRFTFSLDTSVSTAFLQINSLKDEDLAVYFCARYDFDGFDYWGQGTTLTVSS
VL: ENVLTQSPPILSASPGERVTMTCRASSSITFNYLHWYQQKSGDSPKVWIYSTSNLVSGVPSRFSGSGSGTSYSLTISSLEAEDAATYYCQQYSDYPYTFGGGTKLEIK
EC50(ng/mL), neutralization of TNFα killing effect on L929 cell [1]: 50 ng/mL

B2: AT143 humanized anti-TNFα antibody (antibody, human IgG1, V domains shown)
VH: B1 VH with A16E, D73E, V76T, F80Y, V93T
VL: B1 VL with L11M, W48L, L79V
EC50(ng/mL), neutralization of TNFα killing effect on L929 cell [1]: 39.8 ng/mL

B3: mouse monoclonal antibody TM2-11-12 (antibody, mouse IgG1, V domains shown)
VH: B1 VH with A16E, S17T, G44S, D73E, V76T, S85T, V93T
VL: B1 VL with L11M, R18E, S61A, L79V
notes: Purified from hybridoma supernatant; The cloning primers are antisense to the mouse IgG1 heavy chain and mouse kappa light chain constant regions; also called anti-hTNFα mouse antibody TM2-11-12
IC50 [2]: ~0.05 µg/mL

B4: AT151 humanized anti-TNFα antibody (antibody, human IgG1, V domains shown)
VH: B1 VH with D73E, V93T
VL: B1 VL with R18E, S61A, A84F
EC50(ng/mL), neutralization of TNFα killing effect on L929 cell [1]: 42.1 ng/mL

B5: AT164 humanized anti-TNFα antibody (antibody, human IgG1, V domains shown)
VH: B1 VH
VL: B1 VL with L11M, W48L, L79V
EC50(ng/mL), neutralization of TNFα killing effect on L929 cell [1]: 45.5 ng/mL

fold lower binding activity than to human TNFα [3]: 1000 times lower
binding result [4]: no binding
binding activity relative to human TNFα [6]: ~50%
B6: AT132 humanized anti-TNFα monoclonal antibody (antibody, human IgG1, V domains shown)
VH: B1 VH with D73E, V93T
VL: B1 VL
notes: also called E001VH/F001VL
Ka [5]: 8.4e+10 M⁻¹
Kd [5]: 0.0119 nM
EC50(ng/mL), neutralization of TNFα killing effect on L929 cell [1]: 20.4 ng/mL

Source: US20120219547A1 (LIVZON MABPHARM, published 2012)
